Values quoted from earlier work, collected in patent publication US9486409B2, “Peptide nanoparticles and uses therefor” (Anterios, Inc., priority 2006, dated 2016).

Details: unmodified peptide, prior studies (Katayama et al.)

Substance: KTTKS (peptide that may promote extra-cellular matrix production) [unmodified pentapeptide known to promote extra-cellular matrix production]
- penetration of intact skin: cannot penetrate the intact skin without chemical modification
